Source: paper PMC12429063, “The BUB1 and BUBR1 paralogs scaffold the kinetochore fibrous corona” (Science Advances, 2025)

Legend:
[1] = target: T1, mCherry-tagged ROD-Zwilch-ZW10 (RZZ) complex, wild type (UniProt P50748 1-2209; Q9H900 1-591; O43264 1-779); assay: pull-down; GST-BUB1 baits on GSH beads, no phosphorylation step; 50 mM Hepes pH 8.0, 100 mM NaCl, 1 mM TCEP; beads 2 hours at 4°C; SDS-PAGE, Coomassie or in-gel fluorescence; conditions: both partners purified
T1 construct: ROD, subunit of the RZZ complex; Zwilch, subunit of the RZZ complex; ZW10, subunit of the RZZ complex; also called mCherry-RZZ; mCherry-RZZ^WT; source: expressed and purified using the biGBac system, as previously described; copies: 2 + 2 + 2
T1 sequence (P50748 whole entry, chain 1 of 3): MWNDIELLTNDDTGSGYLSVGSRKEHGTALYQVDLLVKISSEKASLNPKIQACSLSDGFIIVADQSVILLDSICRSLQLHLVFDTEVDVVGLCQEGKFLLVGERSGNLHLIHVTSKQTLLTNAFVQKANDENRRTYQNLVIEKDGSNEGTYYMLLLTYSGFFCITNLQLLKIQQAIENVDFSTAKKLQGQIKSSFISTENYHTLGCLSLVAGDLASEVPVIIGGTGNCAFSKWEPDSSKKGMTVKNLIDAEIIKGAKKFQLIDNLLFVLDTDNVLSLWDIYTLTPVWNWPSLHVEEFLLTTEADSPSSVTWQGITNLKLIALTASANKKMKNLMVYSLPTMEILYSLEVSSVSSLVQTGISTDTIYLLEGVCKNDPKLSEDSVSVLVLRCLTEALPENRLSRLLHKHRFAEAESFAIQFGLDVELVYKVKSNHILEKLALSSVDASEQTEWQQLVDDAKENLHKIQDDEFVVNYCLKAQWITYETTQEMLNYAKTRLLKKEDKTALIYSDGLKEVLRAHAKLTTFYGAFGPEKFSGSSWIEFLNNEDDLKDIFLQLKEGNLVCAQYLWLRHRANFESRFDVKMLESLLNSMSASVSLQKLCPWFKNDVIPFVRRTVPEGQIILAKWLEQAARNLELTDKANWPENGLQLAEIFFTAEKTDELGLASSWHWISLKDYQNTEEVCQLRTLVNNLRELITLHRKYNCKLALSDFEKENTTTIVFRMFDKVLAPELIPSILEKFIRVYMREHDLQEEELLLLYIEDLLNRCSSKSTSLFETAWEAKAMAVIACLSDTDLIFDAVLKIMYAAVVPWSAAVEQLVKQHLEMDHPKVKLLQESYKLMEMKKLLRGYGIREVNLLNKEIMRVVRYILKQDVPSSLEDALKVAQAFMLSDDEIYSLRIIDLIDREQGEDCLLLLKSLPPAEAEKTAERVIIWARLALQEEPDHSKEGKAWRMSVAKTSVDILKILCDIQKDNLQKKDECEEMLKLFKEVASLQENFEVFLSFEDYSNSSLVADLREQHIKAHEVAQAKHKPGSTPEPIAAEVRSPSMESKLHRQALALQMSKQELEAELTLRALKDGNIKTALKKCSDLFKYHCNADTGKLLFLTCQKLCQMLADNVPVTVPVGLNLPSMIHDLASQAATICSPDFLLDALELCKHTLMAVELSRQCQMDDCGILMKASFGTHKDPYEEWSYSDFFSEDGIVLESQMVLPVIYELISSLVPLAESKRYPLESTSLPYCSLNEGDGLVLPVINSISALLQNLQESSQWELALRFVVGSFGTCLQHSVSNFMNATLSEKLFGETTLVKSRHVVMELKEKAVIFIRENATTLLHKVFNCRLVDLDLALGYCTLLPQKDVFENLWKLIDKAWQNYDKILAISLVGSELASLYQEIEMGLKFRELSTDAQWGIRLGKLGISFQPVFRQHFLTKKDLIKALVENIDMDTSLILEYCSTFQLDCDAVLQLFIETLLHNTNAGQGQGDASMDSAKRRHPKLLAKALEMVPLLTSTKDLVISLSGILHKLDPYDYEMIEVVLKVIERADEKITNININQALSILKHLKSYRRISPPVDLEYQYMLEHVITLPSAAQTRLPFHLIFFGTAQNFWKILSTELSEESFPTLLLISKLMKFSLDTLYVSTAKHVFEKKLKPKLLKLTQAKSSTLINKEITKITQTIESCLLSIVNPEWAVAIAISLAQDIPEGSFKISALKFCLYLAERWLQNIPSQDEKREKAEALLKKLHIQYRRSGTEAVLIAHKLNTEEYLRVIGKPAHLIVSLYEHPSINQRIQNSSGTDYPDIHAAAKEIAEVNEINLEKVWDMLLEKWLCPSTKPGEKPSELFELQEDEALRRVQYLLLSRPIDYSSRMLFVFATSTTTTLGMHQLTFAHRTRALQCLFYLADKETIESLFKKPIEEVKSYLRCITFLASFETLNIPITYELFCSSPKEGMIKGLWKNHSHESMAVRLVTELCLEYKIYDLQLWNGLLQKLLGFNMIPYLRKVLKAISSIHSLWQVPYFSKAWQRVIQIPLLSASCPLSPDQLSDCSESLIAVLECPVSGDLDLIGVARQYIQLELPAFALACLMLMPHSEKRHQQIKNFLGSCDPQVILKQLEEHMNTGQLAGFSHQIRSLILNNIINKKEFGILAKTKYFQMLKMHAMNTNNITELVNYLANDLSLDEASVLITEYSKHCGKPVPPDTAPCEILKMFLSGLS
T1 sequence (Q9H900 whole entry, chain 2 of 3): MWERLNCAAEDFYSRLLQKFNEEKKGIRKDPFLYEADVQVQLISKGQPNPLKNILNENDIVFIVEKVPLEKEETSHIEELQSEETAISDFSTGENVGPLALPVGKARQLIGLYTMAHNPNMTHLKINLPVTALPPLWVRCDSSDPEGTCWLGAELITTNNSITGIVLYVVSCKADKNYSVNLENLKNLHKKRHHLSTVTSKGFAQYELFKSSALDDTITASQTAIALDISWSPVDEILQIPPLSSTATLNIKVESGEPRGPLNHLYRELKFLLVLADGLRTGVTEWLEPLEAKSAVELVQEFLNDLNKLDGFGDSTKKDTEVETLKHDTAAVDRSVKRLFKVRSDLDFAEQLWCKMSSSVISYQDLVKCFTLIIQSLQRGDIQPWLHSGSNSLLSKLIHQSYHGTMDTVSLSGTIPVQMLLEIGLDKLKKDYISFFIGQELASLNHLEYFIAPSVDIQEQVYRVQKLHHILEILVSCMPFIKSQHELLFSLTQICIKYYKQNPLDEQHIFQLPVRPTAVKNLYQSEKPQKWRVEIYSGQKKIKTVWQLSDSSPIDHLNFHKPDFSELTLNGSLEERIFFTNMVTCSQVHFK
T1 sequence (O43264 whole entry, chain 3 of 3): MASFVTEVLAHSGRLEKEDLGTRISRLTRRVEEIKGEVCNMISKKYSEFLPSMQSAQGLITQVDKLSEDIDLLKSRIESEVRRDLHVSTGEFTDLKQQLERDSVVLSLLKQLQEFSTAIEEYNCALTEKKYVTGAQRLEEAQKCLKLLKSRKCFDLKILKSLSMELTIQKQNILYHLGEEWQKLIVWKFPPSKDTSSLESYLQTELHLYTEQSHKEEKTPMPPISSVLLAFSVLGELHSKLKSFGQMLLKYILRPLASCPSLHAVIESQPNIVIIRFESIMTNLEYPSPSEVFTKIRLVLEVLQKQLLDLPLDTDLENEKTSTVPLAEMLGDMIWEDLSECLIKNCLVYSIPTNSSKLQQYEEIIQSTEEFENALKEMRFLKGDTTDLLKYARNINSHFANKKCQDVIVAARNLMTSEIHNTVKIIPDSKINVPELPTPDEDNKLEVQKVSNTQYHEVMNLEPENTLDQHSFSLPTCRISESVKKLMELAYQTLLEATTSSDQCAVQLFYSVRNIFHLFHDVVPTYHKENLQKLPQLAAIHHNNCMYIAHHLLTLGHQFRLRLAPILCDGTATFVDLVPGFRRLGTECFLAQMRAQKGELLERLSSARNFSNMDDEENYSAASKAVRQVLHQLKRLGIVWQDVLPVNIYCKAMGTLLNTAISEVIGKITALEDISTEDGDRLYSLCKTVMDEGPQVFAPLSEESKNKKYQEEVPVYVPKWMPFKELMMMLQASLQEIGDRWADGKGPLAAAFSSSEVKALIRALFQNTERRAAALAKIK

[2] = target: T2, RZZS rings: mCherry-RZZ polymerized with farnesylated GFP-Spindly in the presence of MPS1 kinase domain (UniProt P50748 1-2209; Q9H900 1-591; O43264 1-779; Q96EA4 1-605, incubated with MPS1 kinase domain and ATP (the paper names T13 and S15 of ROD as the MPS1 sites) | farnesylated); assay: co-sedimentation; pelleting assay: polymerized RZZS incubated with preys 2 hours at 20°C, 40% glycerol cushion, 100,000g 45 min at 20°C; 50 mM Hepes pH 8, 100 mM NaCl, 2 mM MgCl2, 1 mM TCEP; conditions: both partners purified
T2 construct: ROD, subunit of the RZZ complex; Zwilch, subunit of the RZZ complex; ZW10, subunit of the RZZ complex; Spindly, dynein-dynactin adaptor; A polymer; also called polymerized RZZS; RZZS filaments; copies: + + +
T2 sequence (P50748 whole entry, chain 1 of 4, the tested form may be a part): as the sequence (P50748 whole entry, chain 1 of 3) above
T2 sequence (Q9H900 whole entry, chain 2 of 4, the tested form may be a part): as the sequence (Q9H900 whole entry, chain 2 of 3) above
T2 sequence (O43264 whole entry, chain 3 of 4, the tested form may be a part): as the sequence (O43264 whole entry, chain 3 of 3) above
T2 sequence (Q96EA4 whole entry, chain 4 of 4, the tested form may be a part): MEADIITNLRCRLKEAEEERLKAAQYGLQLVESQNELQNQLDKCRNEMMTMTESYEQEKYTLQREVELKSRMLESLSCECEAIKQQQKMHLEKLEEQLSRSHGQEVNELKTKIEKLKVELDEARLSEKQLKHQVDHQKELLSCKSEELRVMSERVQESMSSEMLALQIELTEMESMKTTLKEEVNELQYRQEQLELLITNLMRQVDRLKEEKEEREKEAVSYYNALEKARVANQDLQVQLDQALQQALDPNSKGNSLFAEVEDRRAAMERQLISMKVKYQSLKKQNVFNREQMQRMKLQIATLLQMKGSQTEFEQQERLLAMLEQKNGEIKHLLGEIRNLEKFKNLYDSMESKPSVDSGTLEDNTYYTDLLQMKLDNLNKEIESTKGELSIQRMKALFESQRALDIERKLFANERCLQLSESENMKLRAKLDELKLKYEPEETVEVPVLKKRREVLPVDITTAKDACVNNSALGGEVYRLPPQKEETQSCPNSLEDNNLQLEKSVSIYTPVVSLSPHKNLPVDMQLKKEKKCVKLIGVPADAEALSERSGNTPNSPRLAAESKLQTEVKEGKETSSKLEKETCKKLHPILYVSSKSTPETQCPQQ

binding result [1]: binds | binding result [2]: binds
B1: GST-BUB1^467-521 (domain or fragment, human, UniProt O43683 467-521, looked up)
chain: ALGFIMNMFQAPTLPDISDDKDEWQSLDQNEDAFEAQFQKNVRSSGAWGVNKIIS
notes: source: E. coli BL21 CodonPlus, purified (GSTrap, SEC); not shown: GST, N-terminal, kept
